In article PMC9457596, “Optimization of Bifunctional Antisense Oligonucleotides for Regulation of Mutually Exclusive Alternative Splicing of PKM Gene”:

B1: D2 (structured_RNA)
RNA: UAGGUUAGGU
B2: B2 (structured_RNA)
RNA: CAGGUGAGUCAGGUGAGU
B3: B3 (structured_RNA)
RNA: CAGGUGAGUCAGGUGAGUCAGGUGAGU
B4: A2 (ssRNA)
RNA: CAGGUAAGUCAGGUAAGU
B5: A3 (ssRNA)
RNA: CAGGUAAGUCAGGUAAGUCAGGUAAGU
B6: C2 (ssRNA)
RNA: UAGGAUAGGA
B7: oligo 6 (ssRNA)
RNA: AAGGUAAGU
B8: oligo 20 (ssRNA)
RNA: AAGGUGAU
B9: oligo 21 (ssRNA)
RNA: CACAGA
B10: sequence A (1) (ssRNA)
RNA: CAGGUAAGU
B11: oligo 7 (ssRNA)
RNA: UGUAGG
B12: oligo 41 (ssRNA)
RNA: AUUUA
B13: sequence B (2) (ssRNA)
RNA: CAGGUGAGU
B14: oligo 5 (ssRNA)
RNA: UAGG
B15: sequence D (ssRNA)
RNA: UAGGU
B16: sequence C (3) (ssRNA)
RNA: UAGGA

Each binder was assayed against T1, hnRNP A1 (UniProt P09651 2-196) (assay: EMSA; 150 mM KCl, 50 mM L-Arg, 50 mM L-Glu, 1.5 mM MgCl2, 0.2 mM EDTA, 0.05% BME, 20 mM Na2HPO4, pH 7.0, 4 C, 30 min; 0.5 uM RNA, 0.1-60 uM protein (Kd) or 60 uM (scr)). Settings: protein: recombinant; label: 5'-6-FAM; G4, intermolecular, two tetrads.
T1 sequence (P09651 2-196): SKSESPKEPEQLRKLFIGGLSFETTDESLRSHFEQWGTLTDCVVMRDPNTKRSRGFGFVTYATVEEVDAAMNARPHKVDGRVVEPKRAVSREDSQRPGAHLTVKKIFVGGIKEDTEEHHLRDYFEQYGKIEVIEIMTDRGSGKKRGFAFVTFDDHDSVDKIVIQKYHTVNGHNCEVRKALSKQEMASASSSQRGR

Binder | Kd
B1 | 1200 nM

Same assay, conditions: protein: recombinant; label: 5'-6-FAM; duplex/hairpin

Binder | Kd
B2 | 1760 nM
B3 | 1990 nM

Same assay, conditions: protein: recombinant; label: 5'-6-FAM; no UV melting transition

Binder | Kd
B4 | ~1700 nM
B5 | ~1700 nM

Same assay, conditions: protein: recombinant; label: 5'-6-FAM; single-stranded

Binder | Kd
B6 | 1440 nM

Each binder was assayed against T1, hnRNP A1 (assay: EMSA; 60 uM protein, 0.5 uM RNA; 150 mM KCl, 50 mM L-Arg, 50 mM L-Glu, 1.5 mM MgCl2, 0.2 mM EDTA, 0.05% BME, 20 mM Na2HPO4, pH 7.0, 4 C, 30 min; 0.5 uM RNA, 0.1-60 uM protein (Kd) or 60 uM (scr)). Settings: protein: recombinant; label: 5'-6-FAM.

Binder | binding result
B7 | binds
B8 | no binding
B9 | no binding
B10 | binds
B11 | binds
B12 | no binding
B13 | binds
B14 | binds
B15 | binds
B16 | binds
